Measured values taken from patent US20120039908A1 (TRANSTECH PHARMA, published 2012).
“And” between values parts separate entries of the source, which are not always exact repeats. Equal entries are not always repeated.

B1: sRAGE-Ig fusion protein, sample S1 (control, from untreated CHO cells, unfractionated) (Fc fusion)
chain: QNITARIGEPLVLKCKGAPKKPPQRLEWKLNTGRTEAWKVLSPQGGGPWDSVARVLPNGSLFLPAVGIQDEGIFRCQAMNRNGKETKSNYRVRVYQIPGKPEIVDSASELTAGVPNKVGTCVSEGSYPAGTLSWHLDGKPLVPNEKGVSVKEQTRRHPETGLFTLQSELMVTPAPGGDPRPTFSCSFSPGLPRHRALRTAPIQPRVWEPVPLEEVQLVVEPEGGAVAPPSVFLFPPKPKDTLMISRTPEVTCVVVDVSHEDPEVKFNWYVDGVEVHNAKTKPREEQYNSTYRVVSVLTVLHQDWLNGKEYKCKVSNKALPAPIEKTISKAKGQPREPQVYTLPPSRDELTKNQVSLTCLVKGFYPSDIAVEWESNGQPENNYKTTPPVLDSDGPFFLYSKLTVDKSRWQQGNVFSCSVMHEALHNHYTQKSLSLSPGK
modifications: N-terminal Gln1 cyclized to pyroglutamic acid (pE1); N-linked glycan sites N2, N58, N288 (numbering without the signal): mixture 3-Glycan = 67%, 2-Glycan = 22%
notes: Mostly a non-covalent homodimer (about 78%), with about 19% heterodimer with a furin-cleaved Fc fragment; C-terminal Lys438 partly clipped; also called S1 = control (untreated); sRAGE-Fc
B2: sRAGE-Ig fusion protein, sample S2 (from CHO cells treated with tunicamycin, unfractionated) (Fc fusion)
chain: B1 chain
modifications: pE1; N-linked sites N2, N58, N288: mixture 3-Glycan = 42%, 2-Glycan = 16%, 0-Glycan = 31%
notes: Cells treated with 5 µg/mL tunicamycin for 3 days; also called S2 = TMYCN (treated with tunicamycin)
B3: sRAGE-Ig fusion protein, sample 2 fraction 1 (S2F1), 3-glycan species from tunicamycin treated CHO cells (Fc fusion)
chain: B1 chain
modifications: pE1; N-linked glycans at all three sites N2, N58, N288 (3-glycan only)
notes: RP-HPLC fraction; also called 3-Glycan only
B4: sRAGE-Ig fusion protein, sample 2 fraction 3 (S2F3), 0-glycan (aglycosylated) species from tunicamycin treated CHO cells (Fc fusion)
chain: B1 chain
modifications: pyroglutamic acid (pE) at the N-terminus; no glycan at N2, N58 or N288; mixture with or without C-terminal lysine
notes: RP-HPLC fraction; its mass agrees with the theoretical mass of the unglycosylated fusion protein; also called 0-Glycan only; aglycosylated variant
B5: sRAGE-Ig fusion protein, sample 2 fraction 2 (S2F2), 2-glycan species from tunicamycin treated CHO cells (Fc fusion)
chain: B1 chain
modifications: pE1; two of the three N-linked sites (N2, N58, N288) occupied; the filing cannot tell which
notes: RP-HPLC fraction; also called 2-Glycan only; doubly occupied variant
B6: sRAGE-Ig fusion protein, sample 1 fraction 1 (S1F1), 3-glycan species from untreated CHO cells (Fc fusion)
chain: B1 chain
modifications: pE1; N-linked glycans at all three sites N2, N58, N288 (3-glycan only)
notes: RP-HPLC fraction exchanged into a stabilizing buffer before the ELISA; also called 3-Glycan only; fully occupied 3-glycan version
B7: sRAGE-Ig fusion protein, sample 1 fraction 2 (S1F2), 2-glycan species from untreated CHO cells (Fc fusion)
chain: B1 chain
modifications: pE1; two of the three N-linked sites (N2, N58, N288) occupied; the filing cannot tell which
notes: RP-HPLC fraction; also called 2-Glycan only

Columns and labels:
[1] = biological target: T1, S100b protein (Cat. No. 559290, Calbiochem); test: ELISA, S100b coated on plate; reference S1 control
T1 construct: Coated on the ELISA plate at 20 µg/mL in TBS pH 8.0 with 5 mM CaCl2; also called RAGE ligand S100b
T1 sequence (P04271 2-92, species assumed, looked up): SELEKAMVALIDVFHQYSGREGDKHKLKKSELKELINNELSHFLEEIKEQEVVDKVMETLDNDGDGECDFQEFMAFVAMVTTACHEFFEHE
Description: (§1) S100b binding ELISA: An ELISA assay plate was coated with 100 μL/well of 20 μg/mL S100b protein (Cat. No. 559290, Calbiochem, Gibbstown, N.J.) in coating buffer (Tris buffered saline [TBS], pH8.0, with 5 mM CaCl₂) overnight at 4° C. The plate was then washed three times with blocking buffer (TBS pH8.0, with 5 mM CaCl₂, 0.05% Tween20, and 1% bovine serum albumin [BSA]), and blocked with the blocking buffer for 1-1.5 hr. sRAGE-Ig fusion samples were prepared in a separate dilution plate, the highest concentration was 10 μg/mL in blocking buffer, with 1:4 serial dilution in blocking buffer down to 2.4 ng/mL. After blocking, the assay plate was washed with the blocking buffer and 100 μL of the samples were transferred from the dilution plate to the assay plate. The assay plate was incubated at room temperature for 2.5 hr. The assay plate was then washed three times with the blocking buffer, with 1 min soaking time between the washes. The horseradish peroxidase conjugated goat anti-human IgG (Cat. No. A2290, Sigma, St. Louis, Mo.) was added to the plate with 100 μL/well at 1:2500 dilution in the blocking buffer. The plate was incubated for 1 hr at room temperature. The assay plate was then washed three times with the blocking buffer again, and 100 μL 3,3′,5,5′-tetramethylbenzidine (TMB; Cat. No. 34022, Pierce, Rockford, Ill.) was added to each well and the plate was incubated for 8 minutes at room temperature. 100 μL of 1M H₂SO₄ was then added to each well, the plate was shaken and read at 450 nm on a microplate reader.

[2] = biological target: T2, Abeta (human Aβ peptide; Aβ1-40 or Aβ1-28, Table 5 does not say which) (human, UniProt P05067 672-711); test: ELISA, Abeta peptide coated on plate; reference S1 control
T2 construct: Coated on the ELISA plate at 20 µg/mL in 1% NH4OH; also called A-beta peptide; amyloid beta
T2 sequence (P05067 672-711 limits assumed): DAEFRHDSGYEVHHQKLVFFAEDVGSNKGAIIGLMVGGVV
Description: (§2) Assay for A3 peptide binding activities: Briefly, two human Aβ peptides were tested: Aβ1-40 (Catalogue# A-1153-2, Rpeptide), and Aβ1-28 (Catalogue#24232, AnaSpec). The plates were coated by 20 μg/mL peptide in 1% NH₄OH overnight at 4° C. The plate was then washed with blocking buffer (TBS pH8.0, 0.05% Tween20, and 1% BSA) and blocked for 1 hr at room temperature. All the other steps were performed essentially as described previously herein for S100b binding assay, supra.

[3] = biological target: T1, S100b protein (Cat. No. 559290, …); test: ELISA, S100b coated on plate, sRAGE-Ig titrated, anti-human IgG-HRP
Description: as §1

[4] = biological target: T2, Abeta (human Aβ peptide; Aβ1-40 or …); test: ELISA, Abeta peptide coated on plate, sRAGE-Ig titrated, anti-human IgG-HRP
Description: as §2

[5] = biological target: T1, S100b protein (Cat. No. 559290, …); test: ELISA, S100b coated on plate; reference S1
Description: as §1, with “The assay plate was then washed three times with the blocking buffer again, and 100 μL 3,3′,5,5′-tetramethylbenzidine (TMB; Cat. No. 34022, Pierce, Rockford, Ill.) was added to each well and the plate was incubated for 8 minutes at room temperature.” left out

[6] = biological target: T2, Abeta (human Aβ peptide; Aβ1-40 or …); test: ELISA, Abeta peptide coated on plate; reference S1
Description: as §2

[7] = biological target: T1, S100b protein (Cat. No. 559290, …); test: ELISA, S100b coated on plate; reference S1F1
Description: as §1, with “The assay plate was then washed three times with the blocking buffer again, and 100 μL 3,3′,5,5′-tetramethylbenzidine (TMB; Cat. No. 34022, Pierce, Rockford, Ill.) was added to each well and the plate was incubated for 8 minutes at room temperature.” left out

[8] = biological target: T2, Abeta (human Aβ peptide; Aβ1-40 or …); test: ELISA, Abeta peptide coated on plate; reference S2F1
Description: as §2

Binder	Relative binding compared to control [1] [%]	Relative binding compared to control [2] [%]	IC50 [3]	IC50 [4] [nM]	fold binding relative to sample S1 [5] [fold]	fold binding relative to sample S1 [6] [fold]	fold increase in binding compared to S1 control [5] [fold]	fold increase in binding compared to 3-glycan S1F1 [7] [fold]	fold increase in binding compared to S1 control [6] [fold]	fold increase in binding compared to 3-glycan S2F1 [8] [fold]
B1	100	100	0.18 µg/mL and 1.8 nM	1.24						
B2	295	151	0.061 µg/mL and 0.61 nM	0.82	~3	~1.5				
B3			0.89 µg/mL and 8.9 nM	2.51						
B4	529	295	0.034 µg/mL and 0.34 nM	0.42			5	10	3	6
B5			0.1 µg/mL and 1 nM	0.52						
B6			0.39 µg/mL and 3.9 nM	1.21						
B7			0.104 µg/mL and 1.04 nM	0.73						
